Earlier results as cited in patent publication US7723472B2, “Extracellular matrix binding chimeric proteins and methods of use thereof” (The Regents of the University of California, priority 2005, dated 2010).

Details: published value for yCD, Kievit et al. 1999

B1: yCD: Yeast cytosine deaminase (protein, UniProt Q12178 1-158, looked up)
Cytosine deaminase: MVTGGMASKWDQKGMDIAYEEAALGYKEGGVPIGGCLINNKDGSVLGRGHNMRFQKGSATLHGEISTLENCGRLEGKVYKDTTLYTTLSPCDMCTGAIIMYGIPRCVVGENVNFKSKGEKYLQTRGHEVVVVDDERCKKIMKQFIDERPQDWFEDIGE
Km: 800 µM | Vmax: 68 μM/min/μg enzyme
